Measured values published in article PMC2064741 (The Journal of Cell Biology, 2007).
Read-outs that look alike come from different tables or passages of the source. Blank lines part the entries; values can stand above or below the binder they belong to.

Legend:
[1] = target: T1, Fmn2-FH2 (formin-2 residues 1,124-1,567) ( (printed as m-Fmn2, …, UniProt Q9JL04 1135-1578)); assay: fluorescence polarisation
[2] = target: T1, Fmn2-FH2 (formin-2 residues 1,124-1,567); assay: inhibition of formin-driven pyrene-actin assembly
[3] = target: T2, Capu-FH1FH2 (Drosophila Capu residues 467-1,058) (Drosophila, UniProt Q24120 467-1058); assay: co-sedimentation
T2 sequence: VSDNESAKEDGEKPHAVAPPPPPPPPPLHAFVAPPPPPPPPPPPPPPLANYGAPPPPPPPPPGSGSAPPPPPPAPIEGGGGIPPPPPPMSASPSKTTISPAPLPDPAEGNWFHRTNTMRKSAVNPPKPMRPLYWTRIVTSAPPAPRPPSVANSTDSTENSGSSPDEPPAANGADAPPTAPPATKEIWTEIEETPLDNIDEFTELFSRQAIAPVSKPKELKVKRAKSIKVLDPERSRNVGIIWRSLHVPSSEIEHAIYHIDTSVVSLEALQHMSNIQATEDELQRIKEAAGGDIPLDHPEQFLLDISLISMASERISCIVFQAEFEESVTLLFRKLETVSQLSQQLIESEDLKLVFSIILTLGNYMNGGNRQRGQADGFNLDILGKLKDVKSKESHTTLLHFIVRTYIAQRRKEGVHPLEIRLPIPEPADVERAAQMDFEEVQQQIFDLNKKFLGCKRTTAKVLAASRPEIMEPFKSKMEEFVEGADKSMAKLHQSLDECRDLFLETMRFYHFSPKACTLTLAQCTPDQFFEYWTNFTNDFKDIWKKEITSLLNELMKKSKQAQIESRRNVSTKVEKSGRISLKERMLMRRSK

[4] = target: T2, Capu-FH1FH2 (Drosophila Capu residues …); assay: other fluorescence titration
AUC = target: the molecule itself; assay: AUC
[5] = target: phalloidin-stabilized actin filaments; assay: co-sedimentation
[6] = target: phalloidin-stabilized actin filaments; assay: co-sedimentation; remark: listed apart in the source
[7] = target: T2, Capu-FH1FH2 (Drosophila Capu residues …); assay: fluorescence polarisation
[8] = target: T3, Capu-FH2 (Drosophila Capu residues 573-1,058) (Drosophila, UniProt Q24120 573-1058); assay: inhibition of formin-driven pyrene-actin assembly
T3 sequence: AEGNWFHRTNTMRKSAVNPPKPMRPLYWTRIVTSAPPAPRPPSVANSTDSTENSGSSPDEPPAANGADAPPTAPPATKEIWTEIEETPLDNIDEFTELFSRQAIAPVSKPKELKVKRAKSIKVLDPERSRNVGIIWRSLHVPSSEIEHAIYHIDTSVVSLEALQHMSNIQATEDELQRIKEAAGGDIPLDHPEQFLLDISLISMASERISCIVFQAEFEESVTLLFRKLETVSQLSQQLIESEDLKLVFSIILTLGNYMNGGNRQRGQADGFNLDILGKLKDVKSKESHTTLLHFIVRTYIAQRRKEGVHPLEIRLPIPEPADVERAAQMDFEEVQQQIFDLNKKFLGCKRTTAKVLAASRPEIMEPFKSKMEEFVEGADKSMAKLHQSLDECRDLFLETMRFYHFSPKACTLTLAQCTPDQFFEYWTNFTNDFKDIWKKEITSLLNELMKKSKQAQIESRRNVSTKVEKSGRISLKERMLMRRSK

[9] = target: T2, Capu-FH1FH2 (Drosophila Capu residues …); assay: fluorescence polarisation; remark: listed apart in the source
[10] = target: T3, Capu-FH2 (Drosophila Capu residues …); assay: fluorescence polarisation

T1 sequence (Q9JL04 1135-1578): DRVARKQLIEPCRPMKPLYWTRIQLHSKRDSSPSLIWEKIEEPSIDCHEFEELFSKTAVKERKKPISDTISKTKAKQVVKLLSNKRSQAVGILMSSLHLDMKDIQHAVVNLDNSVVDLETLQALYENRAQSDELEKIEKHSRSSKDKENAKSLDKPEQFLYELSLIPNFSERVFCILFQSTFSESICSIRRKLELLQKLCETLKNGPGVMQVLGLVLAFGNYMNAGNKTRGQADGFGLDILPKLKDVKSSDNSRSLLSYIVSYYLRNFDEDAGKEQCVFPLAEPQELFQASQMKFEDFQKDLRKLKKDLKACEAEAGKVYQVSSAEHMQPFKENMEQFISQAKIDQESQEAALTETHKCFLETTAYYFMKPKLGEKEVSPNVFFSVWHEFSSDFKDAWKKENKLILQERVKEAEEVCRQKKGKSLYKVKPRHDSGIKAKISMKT

- Kd [1]: 300 ± 60 nM
B1: AlexaFluor488-labeled Spir-1–KIND (human Spir-1 residues 2-271) (domain or fragment)
chain: AQAAGPAGGGEPRTEAVGGEGPREPGAAGGAAGGSRDALSLEEILRLYNQPINEEQAWAVCYQCCGSLRAAARRRQPRHRVRSAAQIRVWRDGAVTLAPAADDAGEPPPVAGKLGYSQCMETEVIESLGIIIYKALDYGLKENEERELSPPLEQLIDHMANTVEADGSNDEGYEAAEEGLGDEDEKRKISAIRSYRDVMKLCAAHLPTESDAPNHYQAVCRALFAETMELHTFLTKIKSAKENLKKIQEMEKSDESSTDLEELKNADWAR

- binding result [3]: binds
B3: NTSpir (Drosophila Spir residues 1-520) (domain or fragment)
chain: MTEHQAEEQADTPPTKVKATPTPTPSGKFKDAKEDAFLSTSPDSANGDAQHKLPADQLAMSSSAHPQQAGQARPLILQAFHRCSSPEQCVTLHDILDSFKAPLSEDQAWALIHQFAGLYHQVAVQAHTCAADYEAALPTGFELHFHRDGSVHFSGPDQLTPKEQLQQEQIPLPPQHDVIVDQPDHSASSSGDSSVINRAFDNSNHHHHHQHHHPPLVVSHRKIISELAEIVYTALDYNLPEDEECQVSQELENLFNFMTADETDDDCIDEGIDEGDKRWDDESEEERNDTKELEHIIETCRNHIKTTLPENHYRAVCRALVTETIELRVFLQQVLNNEAGAEKLIKASESSATTQQELAKLGFNDWARFWVQVIDELRRGVRLKKSNHERTPIEYELTPYEILMGDIRAKKYQLRKVMVNGDIPPRVKKDAHAMILEFIRSRPPLKKASDRQLGPPRMCEPSPREQLMESIRKGKELKQITPPEAPTLRERVLPSANSTLSRSRQRLIKVDFSKFQDDDL

- Kd [4]: 2400 ± 900 nM
B4: AlexaFluor488-labeled WH2 cluster, KCK-WH2(C459S) (Drosophila Spir residues 366-482) (domain or fragment)
chain: KCKWARFWVQVIDELRRGVRLKKSNHERTPIEYELTPYEILMGDIRAKKYQLRKVMVNGDIPPRVKKDAHAMILEFIRSRPPLKKASDRQLGPPRMSEPSPREQLMESIRKGKELKQITP
modifications: AlexaFluor488-maleimide on the cysteine of the N-terminal Lys-Cys-Lys (~100% labeled)

- Kd [5]: 7 nM
- Kd [6]: 6 nM
B6: Capu-FH1FH2 (Drosophila Capu residues 467-1,058) (domain or fragment)
chain: T2 sequence

Continued, binder first:

B2: Spir-1–KIND (human Spir-1 residues 2-271), unlabeled (domain or fragment)
chain: B1 chain
- Ki [2]: 190 ± 40 nM

B5: AlexaFluor488-labeled Capu-FH1FH2 with C-terminal Lys-Cys-Lys (domain or fragment)
chain: VSDNESAKEDGEKPHAVAPPPPPPPPPLHAFVAPPPPPPPPPPPPPPLANYGAPPPPPPPPPGSGSAPPPPPPAPIEGGGGIPPPPPPMSASPSKTTISPAPLPDPAEGNWFHRTNTMRKSAVNPPKPMRPLYWTRIVTSAPPAPRPPSVANSTDSTENSGSSPDEPPAANGADAPPTAPPATKEIWTEIEETPLDNIDEFTELFSRQAIAPVSKPKELKVKRAKSIKVLDPERSRNVGIIWRSLHVPSSEIEHAIYHIDTSVVSLEALQHMSNIQATEDELQRIKEAAGGDIPLDHPEQFLLDISLISMASERISCIVFQAEFEESVTLLFRKLETVSQLSQQLIESEDLKLVFSIILTLGNYMNGGNRQRGQADGFNLDILGKLKDVKSKESHTTLLHFIVRTYIAQRRKEGVHPLEIRLPIPEPADVERAAQMDFEEVQQQIFDLNKKFLGCKRTTAKVLAASRPEIMEPFKSKMEEFVEGADKSMAKLHQSLDECRDLFLETMRFYHFSPKACTLTLAQCTPDQFFEYWTNFTNDFKDIWKKEITSLLNELMKKSKQAQIESRRNVSTKVEKSGRISLKERMLMRRSKKCK
modifications: AlexaFluor488-maleimide on the cysteine of the C-terminal Lys-Cys-Lys (~100% labeled)
- stoichiometry N (AUC): 2

B7: KIND (Drosophila Spir residues 1-327), unlabeled (domain or fragment)
chain: MTEHQAEEQADTPPTKVKATPTPTPSGKFKDAKEDAFLSTSPDSANGDAQHKLPADQLAMSSSAHPQQAGQARPLILQAFHRCSSPEQCVTLHDILDSFKAPLSEDQAWALIHQFAGLYHQVAVQAHTCAADYEAALPTGFELHFHRDGSVHFSGPDQLTPKEQLQQEQIPLPPQHDVIVDQPDHSASSSGDSSVINRAFDNSNHHHHHQHHHPPLVVSHRKIISELAEIVYTALDYNLPEDEECQVSQELENLFNFMTADETDDDCIDEGIDEGDKRWDDESEEERNDTKELEHIIETCRNHIKTTLPENHYRAVCRALVTETIEL
- Kd [7]: 5 ± 3 nM
- Ki [8]: 5 ± 1 nM

B8: AlexaFluor488-labeled KIND (Drosophila Spir residues 1-327) (domain or fragment)
chain: B7 chain
- Kd [9]: 1 ± 2 nM
- Kd [10]: 9 ± 6 nM
